From the supplement of paper PMC9170038 come the findings set out here.

What all share (conditions): FMN input: 0 or 200 uM; Eterna round: R93 (includes R88 designs)
Data set [1] has as its system MS2 coat protein. Kind of data set: apparent KD of MS2 coat protein, switch ON state; designed switch direction (-1 OFF switch, 1 ON switch): 1; higher = weaker reporter binding. An outline of the steps: (§1)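 Designed RNA switches were transcribed on-chip from Illumina sequencing clusters. SNAP-549-labelled MS2 coat protein was titrated onto them in twofold steps from 0.7 or 1.5 nM to 3 µM in 100 mM Tris-HCl pH 7.5, 80 mM KCl, 4 mM MgCl2, either without or with constant ligand. Apparent KD reflects the per-design median of normalised cluster binding-curve fits.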

Data set [2] deals with MS2 coat protein. Kind of data set: apparent KD of MS2 coat protein, switch OFF state (with FMN for OFF switches, without FMN for ON switches); designed switch direction (-1 OFF switch, 1 ON switch): 1; higher = weaker reporter binding. An outline of the steps:
as §1

Data set [3] relates to MS2 coat protein. Kind of data set: apparent KD of MS2 coat protein, switch ON state; designed switch direction (-1 OFF switch, 1 ON switch): -1; higher = weaker reporter binding. The method, boiled down:
as §1

In data set [4] the test system is MS2 coat protein. Kind of data set: apparent KD of MS2 coat protein, switch OFF state (with FMN for OFF switches, without FMN for ON switches); designed switch direction (-1 OFF switch, 1 ON switch): -1; higher = weaker reporter binding. The method, boiled down:
as §1

As for “AAAAAAAAAACAUAGGAUAUCCGGGCCGGGACAUGAGGAUCACCCAUGUCAAAAAAAAUUGGCCCGGAGAAGGAUGAAAAAAAAAA [SAmeState2-II]”, the results for the “apparent KD of MS2 coat protein” value with MS2 coat protein [1] and in the data set with MS2 coat protein [2] were 11.5 nM and 14 nM, respectively.
The like results for “AAAAAAAAAAGGCAGGAUAUUCAAAAAAAAACAUGAGGAUCACCCAUGUAAAAAAAAAAAAAAUGGAAGAAGGGCCAAAAAAAAAA [Fiskers Same State 2 D1]” were, in that order, 18.8 nM and 28 nM.
In the same order, the values of “AAAAAAAAAAGUGAGGAUAUGUGAUCGGUGACAUGAGGAUCACCCAUGUGAGGCCUUCGGGCCGGACAGAAGGCACAAAAAAAAA [Same State 2-X]” are 78.1 nM and 257 nM.
Regarding “AAAAAAAAGCCCAAGGAUAUCCGGAUGAAGACAUGAGGAUCACCCAUGUGAAAAAAAAAAUAUGAGGAGAAGGUGGGAAAAAAAAA [Esgemaedso]”, the “apparent KD of MS2 coat protein” value with MS2 coat protein [1] was 63.4 nM; in the data set with MS2 coat protein [2], 76.6 nM.
In the same order, the values of “AAAAAACAUGAGGAUCACCCAUGUAAAAAAAACACAGGAUAUCCCUUUUUUAAAAAAAAAGGAGAAGGGUGAAAAA [Nob's Hobby 7 - Jieux - Same State 1]” are 31.1 nM and 31.5 nM.
The like results for “AAAAAACAUGAGGAUCACCCAUGUAAAAAAAACACAGGAUAUCCCUUUUUUAAAUGGGAAGGAGAAGGGUGAAAAA [Nob's Hobby 11 - Jieux - Same State 1]” were, in that order, 43.1 nM and 36.2 nM.
As to “AAAAAACAUGAGGAUCACCCAUGUAGAAAUAUGGAAGGAUAUGGAAACACGAAAGUGAAACCAGAAGGUCCAAAAG [77%, Mat - Mod of Eli, 9]”, the “apparent KD of MS2 coat protein” value in the data set with MS2 coat protein [1] is 18 nM; with MS2 coat protein [2], 23.9 nM.
For the sequence “AAAAAACAUGAGGAUCACCCAUGUCGAAAGACAUGAGGAUAUGUACAGACUUCGGUCUGUACAGAAGGCAUGUCAA [SS1 - 1020]”, the results for the “apparent KD of MS2 coat protein” value with MS2 coat protein [1] and in the data set with MS2 coat protein [2] were 19.4 nM and 107 nM, respectively.
Consider “GAAAAGUGAGGAUAUACAGAUAAAAAAACGAAAAAAAAUCUGUAGAAGGCACAUGAGGAUCACCCAUGUAAAAG [Mat - Exclusion 4 - Mayanna - D107]”, for which the “apparent KD of MS2 coat protein” value in the data set with MS2 coat protein [3] was found to be 36 nM; in the data set with MS2 coat protein [4] it was 36.6 nM.
“GAAAAGUGAGGAUAUUCGGAUAGGAAAACGAAAACCUAUCCGAAGAAGGCACAUGAGGAUCACCCAUGUGAAAA [Mat - Exaclusion 4 - Eli mod - D44]”: the “apparent KD of MS2 coat protein” value in the data set on MS2 coat protein [3] came to 22.4 nM; in the data set on MS2 coat protein [4], 26.8 nM.
The like results for “GAAAAGUUAGGAUAUACAGAUAAAAAAACGAAAAAAAAUCUGUAGAAGGAACAUGAGGAUCACCCAUGUAAAAA [Mat - Exclusion 4 - Mayanna - D104]” were, in that order, 30.7 nM and 15.5 nM.
In the same order, the values of “GAAAAUUGAGGAUAUACGAACAUGUCAAAAGACGUGAAGGGACAUGAGGAUCACCCAUGUAGAAGGCGAAAGAG [Mat - Exclusion 2 - JL mod - D92]” are 58.6 nM and 14.1 nM.
In the same order, the values of “GAAAGGGCAGGAUAUGCAGAGAGAAAAAAAAAAAAAAAAAAACAUGAGGAUCACCCAUGUAGAAGGGCCGAAAG [salish99-ex2-03]” are 34.7 nM and 48.1 nM.
For the sequence “GAAGAACAUGAGGAUCACCCAUGUCAGGAUAUGCGGAAGGGAAUAAUAACUUCCGGAAGCAGAAGGGACAAGAA [Ex 1 May 49]”, the entries for the “apparent KD of MS2 coat protein” value in the data set with MS2 coat protein [3] and in the data set with MS2 coat protein [4] were 32.3 nM and 60 nM, respectively.
In the same order, the values of “GAAGUACGAGGAUAUACAUAGAUACAGAUACAUGUAGACGUACAUGAGGAUCACCCAUGUAGAAGGCGUACAAG [Mat - Same state - Mayanna Mod - D117]” are 137 nM and 129 nM.
As to “GACCAGUGAGGAUAUGUAAAAAAAAGAGAAGAGAAGAGAGAACAGAAGGCACAUGAGGAUCACCCAUGUAGGGA [Default title]”, the figures for the “apparent KD of MS2 coat protein” value with MS2 coat protein [3] and in the data set on MS2 coat protein [4] were 143 nM and 170 nM, respectively.
In the same order, the values of “GAGAAUGAAGGAUAUACAUGAGGAUCACCCAUGUAAGAGAAAGAGGGAAAAGAGAAAAGUAGAAGGUCAAAGAG [Ruby 73]” are 23.8 nM and 26 nM.
Regarding “GAUAAACAUGAGGAUCACCCAUGUAAGGAUAUGCGCUAACUAACUAACUAACUAACUAGCAGAAGGUACACUAC [The End]”, the “apparent KD of MS2 coat protein” value in the data set on MS2 coat protein [3] amounted to 24.4 nM; with MS2 coat protein [4], 26.5 nM.
In the same order, the values of “GAUUAGGUAGGAUAUACAUGAGGAUCACCCAUGUAGGAAAAAAGCUACGAAAAAGAAUGUAGAAGGACCUAAAG [Mat - Exclusion 3 - Mayanna mod - D105]” are 20.5 nM and 22.9 nM.
In the same order, the values of “GCGCACUAAGGAUAUACAUGAGGAUCACCCAUGUGGGUUUUGAAACAGAUUAAAUAGUGUAGAAGGUAGAAAAC [Lees]” are 91.9 nM and 95.8 nM.
As to “GCUUGCCAAGGAUAUACAUGAGGAUCACCCAUGUGAGAGAAAAAAGUGAGAAAGAAAAGUAGAAGGUGGUGAGG [salish99-ex3-110]”, the “apparent KD of MS2 coat protein” value in the data set with MS2 coat protein [3] came to 26.4 nM; in the data set on MS2 coat protein [4], 120 nM.
In the same order, the values of “GCUUGGGAAGGAUAUACAUGAGGAUCACCCAUGUGAGAGAAAAAAGUGAGAAAGAAAAGUAGAAGGUCUUGAGG [salish99-ex3-84]” are 69.5 nM and 69.4 nM.
The like results for “GCUUGUGUAGGAUAUACAUGAGGAUCACCCAUGUGAGAGAAAAAAGUGAGAAAGAAAAGUAGAAGGACGUGAGG [salish99-ex3-80]” were, in that order, 86.5 nM and 76.5 nM.
With “GGAAAACAUGAGGAUCACCCAUGUAAGGAUAUGCAAAAAAAAAAAAGGAUAUAGAAGGGCAGAAGGUACAAAGG [salish99-ex1-30]”, the “apparent KD of MS2 coat protein” value amounted to 23.3 nM in the data set on MS2 coat protein [3] and 36.1 nM in the data set with MS2 coat protein [4].
As to “GGAAAACAUGAGGAUCACCCAUGUAAGGAUAUGCUAAAAAAGGAAAAAAACCCACCAGGCAGAAGGUACUAAAG [Janelle Amethyst 18 Mod 3 - Jieux - Exclusion 1]”, the “apparent KD of MS2 coat protein” value worked out at 22.7 nM with MS2 coat protein [3] and 53.2 nM with MS2 coat protein [4].
In the same order, the values of “GGAAAACAUGAGGAUCACCCAUGUGAGGAUAUCGAUGUCCAAAAAAAAGUGCGGGACUCGAGAAGGCACUUGGA [salish99-ex1-31]” are 48.2 nM and 32.5 nM.
The like results for “GGGUCACAUGAGGAUCACCCAUGUAAGGAUAUGCUAGGGAUGGAAACCAUUACGCAACGCAGAAGGUACUAAAG [Janelle Amethyst 18 Mod 11 - Jieux - Exclusion 1]” were, in that order, 40.3 nM and 59 nM.
In the same order, the values of “GGUUGGCGAGGAUAUACAUGAGGAUCACCCAUGUGAGCGAAAAAAGUGAGAAAGAAAAGUAGAAGGCGCUGACG [salish99-ex3-50]” are 45.7 nM and 60.5 nM.
For the sequence “GGUUGUGGAGGAUAUACAUGAGGAUCACCCAUGUGAGAGAAAAAAGUGAGAAAGAAAAGUAGAAGGUCGUGACG [salish99-ex3-69]”, the “apparent KD of MS2 coat protein” value amounted to 36.8 nM in the data set on MS2 coat protein [3] and 34 nM in the data set with MS2 coat protein [4].
The like results for “GUGUACAGAGGAUAUACAUAAGCUAGGAAACUAGCAAGAUCACAUGAGGAUCACCCAUGUAGAAGGCUGUACAC [Ex2: 739]” were, in that order, 270 nM and 327 nM.
The like results for “GUGUACAGAGGAUAUAUAUAAGCAUGGAAACAUGCAAGAUCACAUGAGGAUCACCCAUGUAGAAGGCUGUACAC [Ex2: 737]” were, in that order, 23.3 nM and 73.7 nM.
In the same order, the values of “UAGAACCUAGGAUAUACUUGGGUCACUAAUUUACUGAUAUAACAUGAGGAUCACCCAUGUAGAAGGAGGAGUAA [JR_Exc002_Sub203]” are 45.2 nM and 26.7 nM.
With “UGCCGUCUAGGAUAUACAUGAGGAUCACCCAUGUGACACACAUAUUUUACAAAACCAUGUAGAAGGAGACGGCA [E3-2.0]”, the entries for the “apparent KD of MS2 coat protein” value in the data set with MS2 coat protein [3] and with MS2 coat protein [4] were 99.2 nM and 477 nM, respectively.
As to “UGUGAACAUGAGGAUCACCCAUGUGAGGAUAUACGAGCGUGAGAAAGAUAAAACGAGCGUAGAAGGCACAAGAA [JR_Exclusion1_Sub5]”, the “apparent KD of MS2 coat protein” value in the data set on MS2 coat protein [3] amounted to 43.3 nM; with MS2 coat protein [4] it was 57.5 nM.
In the same order, the values of “UUAGAACAUGAGGAUCACCCAUGUGAGGAUAUGCAAUACUAGCGACAAGAUCAUUAUAGCAGAAGGCACGUAGU [JR_EXc001_Sub806]” are 30.1 nM and 40 nM.
Consider “UUUACGUGAGGAUAUGCGAAUAGAACGUAAGUCAUACAGACGCAGAAGGCACAUGAGGAUCACCCAUGUGAACC [JR_Exc004_Sub312]”, for which the “apparent KD of MS2 coat protein” value in the data set on MS2 coat protein [3] amounted to 20 nM; in the data set with MS2 coat protein [4] it was 49.8 nM.
The like results for “UUUAUGUGAGGAUAUACGAAUAGUAAGUAAGUCUUACAGACGUAGAAGGCACAUGAGGAUCACCCAUGUGAACC [JR_Exc004_Sub309]” were, in that order, 46.4 nM and 277 nM.
In the same order, the values of “UUUUGACAUGAGGAUCACCCAUGUCAGGAUAUAGUAGGACAAAAAAAAAAAAGUUCUACUAGAAGGGAUAUGAA [Design 16: Not So Super Stable 2]” are 17.8 nM and 26.7 nM.
